Tests used:
huZIP12-ECD-GST [1] = target: T1, huZIP12-ECD-GST (human, UniProt Q504Y0 24-202); assay: HTRF competition: unlabelled antibody against Tb-labelled 51B12-parent on hZIP12-ECD-GST, detected with anti-GST-XL665
T1 construct: also called hZIP12-ECD-GST; human ZIP12-ECD-GST; not shown: glutathione S-transferase (GST) tag
Method: Homogeneous Time Resolved Fluorescence (HTRF) assays were used to analyse the antibodies. A checkerboard assay was performed to validate the binding of the terbium labeled-antibody with hZIP12-ECD-GST. Serial dilutions (starting at 1000 ng/ml, semi-log dilutions) of Terbium-labeled 51B12-parent were incubated with serial dilutions of hZIP12-ECD-GST (starting at 5000 ng/ml, semi-log dilutions) followed by incubation with anti-GST-XL665. After excitation (320 nm), emission signals were obtained and HTRF ratio was calculated (665 nm/615 nm, Panel A). Signal/background ratios (S/B) were calculated from the HTRF ratios (0 ng/ml hZIP12-ECD-GST as background signal) and plotted against the Tb-51B12-parent concentration. The combinations 500 ng/ml hZIP12-ECD-GST+50 ng Tb-Ab, 150 ng/ml hZIP12-ECD-GST+50 ng Tb-Ab and 50 ng/ml hZIP12-ECD-GST+50 ng Tb-Ab were chosen as range for the competition assay. For the HTRF assay, 150 ng/ml hZIP12-ECD-GST+30 ng/ml Tb-51B12 was selected.

huZIP12-ECD-GST [2] = target: T1, huZIP12-ECD-GST; assay: SPR single cycle kinetics (Biacore): mAb captured on protein A, huZIP12-ECD-GST injected; mean±SD of the control runs
Method: (§1) Single Cycle Kinetics (SCK) involves first capturing the mAb onto the protein A sensor surface and then sequentially injecting a series of concentrations of huZIP12-ECD-GST over the surface starting at the lowest concentration and ending with the highest concentration. The final concentration is followed by a dissociation phase where buffer only is passed across the surface followed by regeneration, where the remaining bound huZIP12-ECD-GST is removed from the surface by injection of a 10 mM Glycine pH 1.5 and 50 mM NaOH solution. The SCK is repeated for each monoclonal antibody providing duplicate data and the kinetics of each interaction is evaluated by the Biacore software.

huZIP12-ECD-GST [3] = target: T1, huZIP12-ECD-GST; assay: SPR single cycle kinetics, 2.34-600 nM huZIP12-ECD-GST, extended dissociation; re-test, lower concentrations, extended dissociation
Method: as §1
(§2) A selection of the higher affinity antibody variants were re-tested at a lower concentration series with an extended dissociation time with the objective of obtaining a better assessment of the binding kinetics. Referring now to FIG. 7, there are shown the data for the monoclonal antibodies that were re-tested to optimise the binding kinetic data. Once again, three antibody variants, H3_W99H_L1, H3_W99HL2 and H3_W99H_VL-par, all appear to have a higher affinity than the parent antibody. The on-rate (ka), off-rate (kd) and overall affinity measurement (KD) are all improved compared to the 51B12 VH_VL_par parent antibody.

huZIP12-ECD-GST [4] = target: T1, huZIP12-ECD-GST; assay: SPR single cycle kinetics (Biacore): mAb captured on protein A, huZIP12-ECD-GST injected at 2.34-600 nM, extended dissociation
Method: as §1, §2

huZIP12-ECD-GST [5] = target: T1, huZIP12-ECD-GST; assay: SPR single cycle kinetics (Biacore): mAb captured on protein A, huZIP12-ECD-GST injected at 3.12-800 nM
Method: as §1
(§3) Referring to FIG. 6, there are shown the kinetic parameters obtained for all antibody variants when screened with the 3.12 nM to 800 nM huZIP12-ECD-GST. […] Affinity.

huZIP12-ECD-GST [6] = target: T1, huZIP12-ECD-GST; assay: SPR single cycle kinetics, mAb captured on protein A, 3.12-800 nM huZIP12-ECD-GST
Method: as §1, §3

T1 sequence (Q504Y0 24-202): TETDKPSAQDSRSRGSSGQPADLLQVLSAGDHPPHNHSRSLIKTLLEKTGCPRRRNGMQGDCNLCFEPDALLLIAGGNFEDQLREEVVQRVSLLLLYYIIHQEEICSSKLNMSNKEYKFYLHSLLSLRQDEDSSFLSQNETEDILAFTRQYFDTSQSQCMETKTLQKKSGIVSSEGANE

Row | Binder | IC50 (read off the curve) (huZIP12-ECD-GST [1]) | Kd (huZIP12-ECD-GST [2]) | koff (huZIP12-ECD-GST [2]) | Kd (huZIP12-ECD-GST [3]) | Kd (huZIP12-ECD-GST [4]) | koff (huZIP12-ECD-GST [4]) | kon (huZIP12-ECD-GST [4]) | Kd (huZIP12-ECD-GST [5]) | koff (huZIP12-ECD-GST [5]) | kon (huZIP12-ECD-GST [5]) | Kd (huZIP12-ECD-GST [6])
1 | 51B12 parent (antibody, V domains shown, Fc null human IgG1 / human kappa) VH: QVQLVESGGGVVQPGRSLRLSCAASGFTFSDYGMHWVRQAPGKGLEWVAYISSGGTTIYYADTVKGRFTISRDNSKNTLYLQMNSLRAEDTAVYYCARWTNLYAMDYWGQGTTVTVSS VL: DIVLTQSPDSLAVSLGERATINCRASKSVSTSGYSYMHWYQQKPGQPPKFLIYLASNLESGVPDRFSGSGSGTDFTLTISSLQAEDVAVYYCQHSREVPYTFGGGTKVEIKR | ~0.2 µg/mL | 0.969 nM | 2.66e-05 s⁻¹ | 1.1 nM | 1.09 nM | 3e-05 s⁻¹ | 27500 M⁻¹ s⁻¹ |  |  |  | 
2 | H3_W99H_VL-par (antibody, V domains shown, Fc null human IgG1 / human kappa) VH: QVQLVESGGGVVQPGRSLRLSCAASGFTFSDYGMHWVRQAPGKGLEWVAYISSGGTTIYYADTVKGRFTISRDNSKNTLYLQMNSLRAEDTAVYYCARHTNLYAMDYWGQGTTVTVSS VL: DIVLTQSPDSLAVSLGERATINCRASKSVSTSGYSYMHWYQQKPGQPPKFLIYLASNLESGVPDRFSGSGSGTDFTLTISSLQAEDVAVYYCQHSREVPYTFGGGTKVEIKR |  |  |  |  | 0.322 nM | 3.29e-05 s⁻¹ | 102000 M⁻¹ s⁻¹ | 0.481 nM | 4.67e-05 s⁻¹ | 97100 M⁻¹ s⁻¹ | ~0.5 nM
3 | H2_T57H_L1 (antibody, V domains shown, Fc null human IgG1 / human kappa) VH: QVQLVESGGGVVQPGRSLRLSCAASGFTFSDYGMHWVRQAPGKGLEWVAYISSGGTHIYYADTVKGRFTISRDNSKNTLYLQMNSLRAEDTAVYYCARWTNLYAMDYWGQGTTVTVSS VL: DIVLTQSPDSLAVSLGERATINCRASKSVSTQGYSYMHWYQQKPGQPPKFLIYLASNLESGVPDRFSGSGSGTDFTLTISSLQAEDVAVYYCQHSREVPYTFGGGTKVEIKR |  |  |  |  | 0.971 nM | 4.18e-05 s⁻¹ | 43100 M⁻¹ s⁻¹ | 0.743 nM | 3.3e-05 s⁻¹ | 44400 M⁻¹ s⁻¹ | 
4 | H2_T63Y_VL-par (antibody, V domains shown, Fc null human IgG1 / human kappa) VH: QVQLVESGGGVVQPGRSLRLSCAASGFTFSDYGMHWVRQAPGKGLEWVAYISSGGTTIYYADYVKGRFTISRDNSKNTLYLQMNSLRAEDTAVYYCARWTNLYAMDYWGQGTTVTVSS VL: DIVLTQSPDSLAVSLGERATINCRASKSVSTSGYSYMHWYQQKPGQPPKFLIYLASNLESGVPDRFSGSGSGTDFTLTISSLQAEDVAVYYCQHSREVPYTFGGGTKVEIKR |  |  |  |  | 0.868 nM | 2.51e-05 s⁻¹ | 28900 M⁻¹ s⁻¹ | 1.03 nM | 3.04e-05 s⁻¹ | 29600 M⁻¹ s⁻¹ | 
5 | H2_T63Y_L1 (antibody, V domains shown, Fc null human IgG1 / human kappa) VH: QVQLVESGGGVVQPGRSLRLSCAASGFTFSDYGMHWVRQAPGKGLEWVAYISSGGTTIYYADYVKGRFTISRDNSKNTLYLQMNSLRAEDTAVYYCARWTNLYAMDYWGQGTTVTVSS VL: DIVLTQSPDSLAVSLGERATINCRASKSVSTQGYSYMHWYQQKPGQPPKFLIYLASNLESGVPDRFSGSGSGTDFTLTISSLQAEDVAVYYCQHSREVPYTFGGGTKVEIKR |  |  |  |  | 1.34 nM | 3.68e-05 s⁻¹ | 27500 M⁻¹ s⁻¹ | 1.07 nM | 3.16e-05 s⁻¹ | 29600 M⁻¹ s⁻¹ | 
6 | H2_Y60K_VL-par (antibody, V domains shown, Fc null human IgG1 / human kappa) VH: QVQLVESGGGVVQPGRSLRLSCAASGFTFSDYGMHWVRQAPGKGLEWVAYISSGGTTIYKADTVKGRFTISRDNSKNTLYLQMNSLRAEDTAVYYCARWTNLYAMDYWGQGTTVTVSS VL: DIVLTQSPDSLAVSLGERATINCRASKSVSTSGYSYMHWYQQKPGQPPKFLIYLASNLESGVPDRFSGSGSGTDFTLTISSLQAEDVAVYYCQHSREVPYTFGGGTKVEIKR |  |  |  |  | 0.829 nM | 3.26e-05 s⁻¹ | 39400 M⁻¹ s⁻¹ | 1.09 nM | 4.01e-05 s⁻¹ | 36700 M⁻¹ s⁻¹ | 

Further binders by falling Kd (huZIP12-ECD-GST [4]), results first:

Row | IC50 (read off the curve) (huZIP12-ECD-GST [1]) | Kd (huZIP12-ECD-GST [2]) | koff (huZIP12-ECD-GST [2]) | Kd (huZIP12-ECD-GST [3]) | Kd (huZIP12-ECD-GST [4]) | koff (huZIP12-ECD-GST [4]) | kon (huZIP12-ECD-GST [4]) | Kd (huZIP12-ECD-GST [5]) | koff (huZIP12-ECD-GST [5]) | kon (huZIP12-ECD-GST [5]) | Binder | Kd (huZIP12-ECD-GST [6])
7 |  |  |  |  | 0.792 nM | 3.3e-05 s⁻¹ | 41600 M⁻¹ s⁻¹ | 0.791 nM | 3.47e-05 s⁻¹ | 43900 M⁻¹ s⁻¹ | H2_T57H_VL-par (antibody, V domains shown, Fc null human IgG1 / human kappa) VH: QVQLVESGGGVVQPGRSLRLSCAASGFTFSDYGMHWVRQAPGKGLEWVAYISSGGTHIYYADTVKGRFTISRDNSKNTLYLQMNSLRAEDTAVYYCARWTNLYAMDYWGQGTTVTVSS VL: DIVLTQSPDSLAVSLGERATINCRASKSVSTSGYSYMHWYQQKPGQPPKFLIYLASNLESGVPDRFSGSGSGTDFTLTISSLQAEDVAVYYCQHSREVPYTFGGGTKVEIKR | 
8 |  |  |  |  | 0.604 nM | 2.25e-05 s⁻¹ | 37200 M⁻¹ s⁻¹ | 0.957 nM | 3.7e-05 s⁻¹ | 38600 M⁻¹ s⁻¹ | H2_Y60K_L1 (antibody, V domains shown, Fc null human IgG1 / human kappa) VH: QVQLVESGGGVVQPGRSLRLSCAASGFTFSDYGMHWVRQAPGKGLEWVAYISSGGTTIYKADTVKGRFTISRDNSKNTLYLQMNSLRAEDTAVYYCARWTNLYAMDYWGQGTTVTVSS VL: DIVLTQSPDSLAVSLGERATINCRASKSVSTQGYSYMHWYQQKPGQPPKFLIYLASNLESGVPDRFSGSGSGTDFTLTISSLQAEDVAVYYCQHSREVPYTFGGGTKVEIKR | 
9 |  |  |  |  | 0.339 nM | 3.16e-05 s⁻¹ | 93100 M⁻¹ s⁻¹ | 0.472 nM | 3.98e-05 s⁻¹ | 84300 M⁻¹ s⁻¹ | H3_W99H_L2 (antibody, V domains shown, Fc null human IgG1 / human kappa) VH: QVQLVESGGGVVQPGRSLRLSCAASGFTFSDYGMHWVRQAPGKGLEWVAYISSGGTTIYYADTVKGRFTISRDNSKNTLYLQMNSLRAEDTAVYYCARHTNLYAMDYWGQGTTVTVSS VL: DIVLTQSPDSLAVSLGERATINCRASKSVSTSGYSYMHWYQQKPGQPPKFLIYLASNKESGVPDRFSGSGSGTDFTLTISSLQAEDVAVYYCQHSREVPYTFGGGTKVEIKR | ~0.5 nM

From patent publication US20260109761A1 (IP2IPO INNOVATIONS, published 2026)
